Measurements as given in paper PMC6773438.

B1: Ramazzottius varieornatus damage suppressor protein (Rv Dsup) [Ramazzottius varieornatus] / mononucleosomes reconstituted by salt dialysis with purified recombinant Drosophila core histones [Drosophila] (parent)
chain 1: MASTHQSSTEPSSTGKSEETKKDASQGSGQDSKNVTVTKGTGSSATSAAIVKTGGSQGKDSSTTAGSSSTQGQKFSTTPTDPKTFSSDQKEKSKSPAKEVPSGGDSKSQGDTKSQSDAKSSGQSQGQSKDSGKSSSDSSKSHSVIGAVKDVVAGAKDVAGKAVEDAPSIMHTAVDAVKNAATTVKDVASSAASTVAEKVVDAYHSVVGDKTDDKKEGEHSGDKKDDSKAGSGSGQGGDNKKSEGETSGQAESSSGNEGAAPAKGRGRGRPPAAAKGVAKGAAKGAAASKGAKSGAESSKGGEQSSGDIEMADASSKGGSDQRDSAATVGEGGASGSEGGAKKGRGRGAGKKADAGDTSAEPPRRSSRLTSSGTGAGSAPAAAKGGAKRAASSSSTPSNAKKQATGGAGKAAATKATAAKSAASKAPQNGAGAKKKGGKAGGRKRK
chain 2: not shown
chain 3: not shown
chain 4: not shown
chain 5: not shown

Variants of: B1
Assay: gel mobility shift
Conditions: Dsup/Nucleosome 3.0, mononucleosome, 5S rDNA sequence (147 bp), parent: 73

response [% Bound]	Variant
47	chain 1 R363E R364E R367E

Same assay, conditions: Dsup/Nucleosome 4.5, mononucleosome, 5S rDNA sequence (147 bp), parent: 95

response [% Bound]	Variant
69	chain 1 R363E R364E R367E
